Test results reported in US20250186614A1, “COMPACT DRUG RESPONSIVE DOMAINS FOR REGULATION OF FUNCTION/ABUNDANCE AND DELIVERY OF POLYPEPTIDE PAYLOADS” (OBSIDIAN THERAPEUTICS, INC., priority 2022, published 2025).
Read-outs that look alike come from different tables or passages of the source.

Assay: Example 4: dose response of FKBP constructs 160-255, Ec50, Ec90 and fold change (raw and normalized to mCherry)
Format: cell-based
Conditions: for FC (fold change): fold change during initial analysis
Protocol: Additional experiments were performed for constructs FKBP-160-292.

[1] = FKBP constructs 160-255, not normalized, read-out: EC90
[2] = normalized to mCherry, read-out: EC90 (Norm)

Row | Molecule | EC90 [1] [nM] | FC (fold change) | EC90 [2] [nM]
1 | FKBP-206 (protein, Description of sequence: Construct Name: FKBP-206; Mutation(s): Q72R Q84E A117W V85R DRD M54A K135Y) HCPIKSRKGDVLHAHYTGKLEDGTEFDSSLPRNQPFVFSLGTGERIKGWDQGLLGMCEGEKRKLVIPSELGYGERGWPPKIPGGATLVFEVELLYIER | 573 | 50.1 | 550
2 | FKBP-207 (protein, Description of sequence: Construct Name: FKBP-207; Mutation(s): Q72R Q84E A117W V85R DRD M54A I136V) HCPIKSRKGDVLHAHYTGKLEDGTEFDSSLPRNQPFVFSLGTGERIKGWDQGLLGMCEGEKRKLVIPSELGYGERGWPPKIPGGATLVFEVELLKVER | 311 | 35.4 | 302
3 | FKBP-162 (protein, C-terminal R deleted; Description of sequence: Construct Name: FKBP-162; Mutation(s): Q72R Q84E A117W DRD M54A del c-term R V85R) HCPIKSRKGDVLHAHYTGKLEDGTEFDSSLPRNQPFVFSLGTGERIKGWDQGLLGMCEGEKRKLVIPSELGYGERGWPPKIPGGATLVFEVELLKIE | 1800 | 46.6 | 1870
4 | FKBP-208 (protein, Description of sequence: Construct Name: FKBP-208; Mutation(s): Q72R Q84E A117W V85R DRD M54A E130R) HCPIKSRKGDVLHAHYTGKLEDGTEFDSSLPRNQPFVFSLGTGERIKGWDQGLLGMCEGEKRKLVIPSELGYGERGWPPKIPGGATLVFRVELLKIER | 4220 | 87.2 | 4120
5 | FKBP-209: FKBP13 DRD-AcGFP construct of Table 10 (protein, Description of sequence: Construct Name: FKBP-209; Mutation(s): Q72R Q84E A117W V85R DRD M54A K101W) HCPIKSRKGDVLHAHYTGKLEDGTEFDSSLPRNQPFVFSLGTGERIKGWDQGLLGMCEGEWRKLVIPSELGYGERGWPPKIPGGATLVFEVELLKIER | 682 | 56.0 | 777
6 | FKBP-210 (protein, Description of sequence: Construct Name: FKBP-210; Mutation(s): Q72R Q84E A117W V85R DRD M54A E98L) HCPIKSRKGDVLHAHYTGKLEDGTEFDSSLPRNQPFVFSLGTGERIKGWDQGLLGMCLGEKRKLVIPSELGYGERGWPPKIPGGATLVFEVELLKIER | 191 | 32.8 | 208
7 | FKBP-211 (protein, Description of sequence: Construct Name: FKBP-211; Mutation(s): Q72R Q84E A117W V85R DRD M54A D62S) HCPIKSRKGDVLHAHYTGKLESGTEFDSSLPRNQPFVFSLGTGERIKGWDQGLLGMCEGEKRKLVIPSELGYGERGWPPKIPGGATLVFEVELLKIER | 452 | 35.7 | 481
8 | FKBP-212 (protein, Description of sequence: Construct Name: FKBP-212; Mutation(s): Q72R Q84E A117W V85R DRD M54A H53L) HCPIKSRKGDVLLAHYTGKLEDGTEFDSSLPRNQPFVFSLGTGERIKGWDQGLLGMCEGEKRKLVIPSELGYGERGWPPKIPGGATLVFEVELLKIER | 299 | 40.2 | 317
9 | FKBP-213 (protein, Description of sequence: Construct Name: FKBP-213; Mutation(s): Q72R Q84G A117W DRD P43R M54A) HCRIKSRKGDVLHAHYTGKLEDGTEFDSSLPRNQPFVFSLGTGGVIKGWDQGLLGMCEGEKRKLVIPSELGYGERGWPPKIPGGATLVFEVELLKIER | 47.4 | 28.8 | 47
10 | FKBP-214: FKBP13 DRD-AcGFP construct of Table 10 (protein, Description of sequence: Construct Name: FKBP-214; Mutation(s): Q72R Q84G A117W V85R DRD P43R M54A) HCRIKSRKGDVLHAHYTGKLEDGTEFDSSLPRNQPFVFSLGTGGRIKGWDQGLLGMCEGEKRKLVIPSELGYGERGWPPKIPGGATLVFEVELLKIER | 388 | 51.0 | 390
11 | FKBP-216 (protein, Description of sequence: Construct Name: FKBP-216; Mutation(s): Q72R Q84E A117W DRD M54A E61Y K101W K135Y) HCPIKSRKGDVLHAHYTGKLYDGTEFDSSLPRNQPFVFSLGTGEVIKGWDQGLLGMCEGEWRKLVIPSELGYGERGWPPKIPGGATLVFEVELLYIER | 14100 | 27.6 | 14500
12 | FKBP-217 (protein, Description of sequence: Construct Name: FKBP-217; Mutation(s): Q72R Q84E A117W V85R DRD M54A E61Y K101W K135Y) HCPIKSRKGDVLHAHYTGKLYDGTEFDSSLPRNQPFVFSLGTGERIKGWDQGLLGMCEGEWRKLVIPSELGYGERGWPPKIPGGATLVFEVELLYIER | 16100 | 36.8 | 17500
13 | FKBP-218 (protein, Description of sequence: Construct Name: FKBP-218; Mutation(s): Q72R Q84E A117W DRD M54A E61G K101G K135E) HCPIKSRKGDVLHAHYTGKLGDGTEFDSSLPRNQPFVFSLGTGEVIKGWDQGLLGMCEGEGRKLVIPSELGYGERGWPPKIPGGATLVFEVELLEIER |  | 4.46 | 
14 | FKBP-219 (protein, Description of sequence: Construct Name: FKBP-219; Mutation(s): Q72R Q84E A117W V85R DRD M54A E61G K101G K135E) HCPIKSRKGDVLHAHYTGKLGDGTEFDSSLPRNQPFVFSLGTGERIKGWDQGLLGMCEGEGRKLVIPSELGYGERGWPPKIPGGATLVFEVELLEIER |  | 5.4 | 
15 | FKBP-163 (protein, Description of sequence: Construct Name: FKBP-163; Mutation(s): Q72R Q84E A117W DRD M54A M96V V85R) HCPIKSRKGDVLHAHYTGKLEDGTEFDSSLPRNQPFVFSLGTGERIKGWDQGLLGVCEGEKRKLVIPSELGYGERGWPPKIPGGATLVFEVELLKIER | 756 | 29.4 | 1010
16 | FKBP-220: FKBP13 DRD-AcGFP construct of Table 10 (protein, Description of sequence: Construct Name: FKBP-220; Mutation(s): Q72R Q84E A117W V85R DRD T25G) HCPIKSRKGDVLHMHYTGKLEDGGEFDSSLPRNQPFVFSLGTGERIKGWDQGLLGMCEGEKRKLVIPSELGYGERGWPPKIPGGATLVFEVELLKIER | 156 | 34.2 | 165
17 | FKBP-221 (protein, Description of sequence: Construct Name: FKBP-221; Mutation(s): Q72R Q84E A117W V85R DRD M54A T25G) HCPIKSRKGDVLHAHYTGKLEDGGEFDSSLPRNQPFVFSLGTGERIKGWDQGLLGMCEGEKRKLVIPSELGYGERGWPPKIPGGATLVFEVELLKIER | 495 | 41.8 | 567
18 | FKBP-222 (protein, Description of sequence: Construct Name: FKBP-222; Mutation(s): Q72R Q84E A117W DRD P4W T25R) HCWIKSRKGDVLHMHYTGKLEDGREFDSSLPRNQPFVFSLGTGEVIKGWDQGLLGMCEGEKRKLVIPSELGYGERGWPPKIPGGATLVFEVELLKIER | 612 | 40.6 | 602
19 | FKBP-223: FKBP13 DRD-AcGFP construct of Table 10 (protein, Description of sequence: Construct Name: FKBP-223; Mutation(s): Q72R Q84E A117W V85R DRD M54A P4W T25R) HCWIKSRKGDVLHAHYTGKLEDGREFDSSLPRNQPFVFSLGTGERIKGWDQGLLGMCEGEKRKLVIPSELGYGERGWPPKIPGGATLVFEVELLKIER | 674 | 52.5 | 713
20 | FKBP-224 (protein, Description of sequence: Construct Name: FKBP-224; Mutation(s): Q72R Q84E A117W DRD P43R) HCRIKSRKGDVLHMHYTGKLEDGTEFDSSLPRNQPFVFSLGTGEVIKGWDQGLLGMCEGEKRKLVIPSELGYGERGWPPKIPGGATLVFEVELLKIER | 78.6 | 5.2 | 88.7
